The text below walks through data of US20140142103, “Methods and Compositions for Modulating Rad51 and Homologous Recombination” (The University of Chicago, published 2014).

In the data set the target is RecA (UniProt P0A7G6 P0A7G6:2-353). The data set can be described thus: FP; positive control; 10 mM Mg acetate, 2 mM ATP, 37 C. The conditions noted are these: tags: New England Biolabs; label: 5' fluorescein. As for the experimental part: FIG. 2A, bottom: Purified RAD51 protein (wild type or mutant F86E) were serially diluted. RecA (New England Biolabs) was used as a positive control. Proteins were added to a 5′terminal fluorescein conjugated oligonucleotide (45 bases of dT) at a 1 μM nucleotide concentration. The mixture was incubated at 37° C. for 30 minutes in 384-well plates containing a reaction buffer (30 mM Tris/acetate pH 7.5, 10 mM Mg²⁺/acetate, 2 mM ATP, 0.1 mM DTT, 0.5 μM BSA). Fluorescence polarization was measured with a plate reader (filters: excitation=485 nm, emission=510 nm). FIG. 2B, top: Varying concentrations of 5′terminal fluorescein conjugated oligonucleotide were used to determine the threshold RAD51 concentration.
RAD51 filament formation can also be studied using oligonucleotides that are end-labeled with a fluorescent tag. Binding of proteins to this substrate DNA can be detected as an increase in anisotropy (or polarization) of the fluorescent tag. This method has been used to monitor the DNA-binding activity of yeast RAD51 (Kim et al., 2001) and RecA (Wittung et al., 1997; Ellouze et al., 1999), which is the […] homolog of RAD51. In this example, this method was modified so that very small sample volumes (30 μl) can be monitored in a high-throughput scale, using 384-well plates and a fluorescent plate reader. […]

RecA, sequence (P0A7G6 2-353, one chain of several): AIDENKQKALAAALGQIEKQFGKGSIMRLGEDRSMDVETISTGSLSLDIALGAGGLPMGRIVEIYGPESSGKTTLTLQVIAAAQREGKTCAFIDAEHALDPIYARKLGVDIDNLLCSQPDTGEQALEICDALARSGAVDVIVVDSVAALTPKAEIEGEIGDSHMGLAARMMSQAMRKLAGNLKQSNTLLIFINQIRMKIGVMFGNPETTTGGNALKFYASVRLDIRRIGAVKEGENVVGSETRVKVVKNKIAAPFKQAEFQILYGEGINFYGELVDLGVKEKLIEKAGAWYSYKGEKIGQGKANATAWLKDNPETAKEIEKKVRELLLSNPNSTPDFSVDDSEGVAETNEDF

For the molecule TTTTTTTTTTTTTTTTTTTTTTTTTTTTTTTTTTTTTTTTTTTTT (ssDNA) [oligo dT45], the binding result was “binds”.
